Measured values taken from patent publication US20210246166A1 (Bayer, published 2021).
Bridge positions count the residues as written; N and C are the ends. Square brackets hold non-standard residues; d marks the D form. Primed or numbered codes have the meaning given here. Ends that are not written are not given here. TTDS(3) = 1,13-Diamino-4,7,10-trioxatridecan-succinamic acid; Pro(3S,4R-methano) = O=C(O)[C@H]1NC[C@@H]2C[C@@H]21; Oic = O=C(O)[C@@H]1C[C@@H]2CCCC[C@@H]2N1; PEG8 = NCCOCCOCCOCCOCCOCCOCCOCCOCCC(=O)O; Pro‑D2 = L-proline (3,4-2H), deuterated; PEG7 = NCCOCCOCCOCCOCCOCCOCCOCCC(=O)O; PEG6 = NCCOCCOCCOCCOCCOCCOCCC(=O)O; tBuAla = CC(C)(C)C[C@H](N)C(=O)O; PEG5 = NCCOCCOCCOCCOCCOCCC(=O)O; Pen = CC(C)(S)[C@H](N)C(=O)O; PEG3 = NCCOCCOCCOCCC(=O)O; NMeA = CN[C@@H](C)C(=O)O; Sar = CNCC(=O)O

T1: recombinant rat MASP1 active protease (amino acids 302-704, C-terminal His Tag) (rat, UniProt Q8CHN8 302-704)
T1 sequence: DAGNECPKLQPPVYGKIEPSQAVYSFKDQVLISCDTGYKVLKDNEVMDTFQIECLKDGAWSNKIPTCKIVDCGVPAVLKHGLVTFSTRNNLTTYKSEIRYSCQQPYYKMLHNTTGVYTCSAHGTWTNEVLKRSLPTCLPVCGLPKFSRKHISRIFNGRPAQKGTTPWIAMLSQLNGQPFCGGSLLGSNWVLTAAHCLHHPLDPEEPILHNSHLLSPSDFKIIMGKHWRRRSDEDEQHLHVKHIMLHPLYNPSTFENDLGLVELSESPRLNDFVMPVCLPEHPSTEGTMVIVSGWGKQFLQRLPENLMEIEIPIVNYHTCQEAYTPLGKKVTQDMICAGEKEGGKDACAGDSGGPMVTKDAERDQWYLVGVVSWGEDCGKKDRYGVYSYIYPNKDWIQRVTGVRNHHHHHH


Assays:
[1] = biological target: recombinant rat MASP2 active protease (amino acids 296-685, C-terminal His Tag) (rat, UniProt Q9JJS8 296-685); test: cell-based or functional assay
Sequence of recombinant rat MASP2 active protease (amino acids 296-685, C-terminal His Tag) (Q9JJS8 other isoform, or with tags, fused parts or gaps limits assumed): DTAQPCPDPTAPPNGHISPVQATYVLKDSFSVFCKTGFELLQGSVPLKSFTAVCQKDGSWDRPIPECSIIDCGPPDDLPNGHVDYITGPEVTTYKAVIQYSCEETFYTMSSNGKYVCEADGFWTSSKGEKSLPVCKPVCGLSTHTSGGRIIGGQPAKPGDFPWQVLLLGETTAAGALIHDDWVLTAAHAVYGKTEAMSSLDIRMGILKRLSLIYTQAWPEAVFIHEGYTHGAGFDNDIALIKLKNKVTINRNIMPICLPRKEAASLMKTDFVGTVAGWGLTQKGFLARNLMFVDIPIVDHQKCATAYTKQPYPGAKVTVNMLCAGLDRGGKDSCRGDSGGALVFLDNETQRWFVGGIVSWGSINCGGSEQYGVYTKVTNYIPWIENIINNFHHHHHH

[2] = biological target: T1, recombinant rat MASP1 active protease …; test: cell-based or functional assay

Binder | rat MASP2 IC50 [1] [nM] | rat MASP1 IC50 [2] [nM]
[NMeA]ICSRS[tBuAla]PPI[Pen]IP-NH2 (disulfide 3-11; N-terminus assumed; SMILES CC[C@H](C)[C@H](NC(=O)[C@H](C)NC)C(=O)N[C@H]1CSSC(C)(C)[C@@H](C(=O)N[C@H](C(=O)N2CCC[C@H]2C(N)=O)[C@@H](C)CC)NC(=O)[C@H]([C@@H](C)CC)NC(=O)[C@@H]2CCCN2C(=O)[C@@H]2CCCN2C(=O)[C@H](CC(C)(C)C)NC(=O)[C@H](CO)NC(=O)[C@H](CCCNC(=N)N)NC(=O)[C@H](CO)NC1=O) [Example 126: ((N-Me)A)-IC+SRS-((tBu)A)-PPI-(Pen)+IP-NH2] | 10 | 11
[Sar]ICSRS[tBuAla]PPI[Pen]IP-{PEG5‑CH2CO2H (18 atoms)-NH2} (disulfide 3-11) [Example 55: ((N-Me)G)-IC+SRS-((tBu)A)-PPI-(Pen)+IP-(PEG5-CH2CO2H (18 atoms))-NH2] | 27 | 65
[Sar]ICSRS[tBuAla]PPI[Pen]IP-{TTDS(3)-NH2} (disulfide 3-11) [Example 85: ((N-Me)G)-IC+SRS-((tBu)A)-PPI-(Pen)+IP-(TTDS)-NH2] | 37 | 75
[Sar]ICSRSL[Pro(3S,4R-methano)]PI[Pen]IPE-NH2 (disulfide 3-11; N-terminus assumed; SMILES CC[C@H](C)[C@H](NC(=O)CNC)C(=O)N[C@H]1CSSC(C)(C)[C@@H](C(=O)N[C@H](C(=O)N2CCC[C@H]2C(=O)N[C@@H](CCC(=O)O)C(N)=O)[C@@H](C)CC)NC(=O)[C@H]([C@@H](C)CC)NC(=O)[C@@H]2CCCN2C(=O)[C@@H]2[C@H]3C[C@H]3CN2C(=O)[C@H](CC(C)C)NC(=O)[C@H](CO)NC(=O)[C@H](CCCNC(=N)N)NC(=O)[C@H](CO)NC1=O) | 55 | 67
[Sar]ICSRSLP[Oic]I[Pen]IP-NH2 (disulfide 3-11; N-terminus assumed; SMILES CC[C@H](C)[C@H](NC(=O)CNC)C(=O)N[C@H]1CSSC(C)(C)[C@@H](C(=O)N[C@H](C(=O)N2CCC[C@H]2C(N)=O)[C@@H](C)CC)NC(=O)[C@H]([C@@H](C)CC)NC(=O)[C@@H]2C[C@@H]3CCCC[C@@H]3N2C(=O)[C@@H]2CCCN2C(=O)[C@H](CC(C)C)NC(=O)[C@H](CO)NC(=O)[C@H](CCCNC(=N)N)NC(=O)[C@H](CO)NC1=O) [Example 109: ((N-Me)G)-IC+SRSLP-(Oic)-I-(Pen)+IP-NH2] | 42 | 76
[Sar]ICSRS[tBuAla]PPI[Pen]IP-{PEG3-NH2} (disulfide 3-11) [Example 72: ((N-Me)G)-IC+SRS-((tBu)A)-PPI-(Pen)+IP-(PEG2(13 atoms))-NH2] | 27 | 43
VICSRS[tBuAla]PPI[Pen]IPD-NH2 (disulfide 3-11; N-terminus assumed; SMILES CC[C@H](C)[C@H](NC(=O)[C@@H](N)C(C)C)C(=O)N[C@H]1CSSC(C)(C)[C@@H](C(=O)N[C@H](C(=O)N2CCC[C@H]2C(=O)N[C@@H](CC(=O)O)C(N)=O)[C@@H](C)CC)NC(=O)[C@H]([C@@H](C)CC)NC(=O)[C@@H]2CCCN2C(=O)[C@@H]2CCCN2C(=O)[C@H](CC(C)(C)C)NC(=O)[C@H](CO)NC(=O)[C@H](CCCNC(=N)N)NC(=O)[C@H](CO)NC1=O) [Example 54: VIC+SRS-((tBu)A)-PPI-(Pen)+IPD-NH2] | 48 | 160
[Sar]ICSRSLP[Oic]I[Pen]IP-{PEG5‑CH2CO2H (18 atoms)-NH2} (disulfide 3-11) [Example 83: ((N-Me)G)-IC+SRSLP-(Oic)-I-(Pen)+IP-(PEG5-CH2CO2H (18 atoms))-NH2] | 48 | 120
[Sar]ICSRSLP[Oic]I[Pen]IP-NH2 (disulfide 3-11; also: HCl salt) [Example 67: ((N-Me)G)-IC+SRSLP-(Oic)-I-(Pen)+IP-NH2 (HCl salt)] | 36 | 72
[Sar]ICSRSLP[Oic]I[Pen]IP-{PEG5-NH2} (disulfide 3-11) [Example 97: ((N-Me)G)-IC+SRSLP-(Oic)-I-(Pen)+IP-(PEG4(19 atoms))-NH2] | 51 | 120
[Sar]ICSRSLP[Oic]I[Pen]IPD-OH (disulfide 3-11; N-terminus assumed; SMILES CC[C@H](C)[C@H](NC(=O)CNC)C(=O)N[C@H]1CSSC(C)(C)[C@@H](C(=O)N[C@H](C(=O)N2CCC[C@H]2C(=O)N[C@@H](CC(=O)O)C(=O)O)[C@@H](C)CC)NC(=O)[C@H]([C@@H](C)CC)NC(=O)[C@@H]2C[C@@H]3CCCC[C@@H]3N2C(=O)[C@@H]2CCCN2C(=O)[C@H](CC(C)C)NC(=O)[C@H](CO)NC(=O)[C@H](CCCNC(=N)N)NC(=O)[C@H](CO)NC1=O) [Example 88: ((N-Me)G)-IC+SRSLP-(Oic)-I-(Pen)+IPD-OH] | 68 | 36

Now from value to binder:

rat MASP2 IC50 [1] [nM] | rat MASP1 IC50 [2] [nM] | Binder
17.1 | 10.9 | AICSRSL[Pro‑D2][Oic]I[Pen]IPD-OH (disulfide 3-11) [Example 142: AIC+SRSL-(Pro-D2)-(Oic)-I-(Pen)+IPD-OH]
95 | 140 | [Sar]ICSRSLP[Oic]I[Pen]IPD[PEG8]-NH2 (disulfide 3-11; N-terminus assumed; SMILES CC[C@H](C)[C@H](NC(=O)CNC)C(=O)N[C@H]1CSSC(C)(C)[C@@H](C(=O)N[C@H](C(=O)N2CCC[C@H]2C(=O)N[C@@H](CC(=O)O)C(=O)NCCOCCOCCOCCOCCOCCOCCOCCOCCC(N)=O)[C@@H](C)CC)NC(=O)[C@H]([C@@H](C)CC)NC(=O)[C@@H]2C[C@@H]3CCCC[C@@H]3N2C(=O)[C@@H]2CCCN2C(=O)[C@H](CC(C)C)NC(=O)[C@H](CO)NC(=O)[C@H](CCCNC(=N)N)NC(=O)[C@H](CO)NC1=O) [Example 141: ((N-Me)G)-IC+SRSLP-(Oic)-I-(Pen)+IPD-(PEG8(28 atoms))-NH2]
16 | 21 | [Sar]ICSRS[tBuAla]PPI[Pen]IP-NH2 (disulfide 3-11; N-terminus assumed; SMILES CC[C@H](C)[C@H](NC(=O)CNC)C(=O)N[C@H]1CSSC(C)(C)[C@@H](C(=O)N[C@H](C(=O)N2CCC[C@H]2C(N)=O)[C@@H](C)CC)NC(=O)[C@H]([C@@H](C)CC)NC(=O)[C@@H]2CCCN2C(=O)[C@@H]2CCCN2C(=O)[C@H](CC(C)(C)C)NC(=O)[C@H](CO)NC(=O)[C@H](CCCNC(=N)N)NC(=O)[C@H](CO)NC1=O) [Example 156: ((N-Me)G)-IC+SRS-((tBu)A)-PPI-(Pen)+IP-NH2]
50 | 100 | [Sar]ICSRSLP[Oic]I[Pen]IP[PEG6]-NH2 (disulfide 3-11; N-terminus assumed; SMILES CC[C@H](C)[C@H](NC(=O)CNC)C(=O)N[C@H]1CSSC(C)(C)[C@@H](C(=O)N[C@H](C(=O)N2CCC[C@H]2C(=O)NCCOCCOCCOCCOCCOCCOCCC(N)=O)[C@@H](C)CC)NC(=O)[C@H]([C@@H](C)CC)NC(=O)[C@@H]2C[C@@H]3CCCC[C@@H]3N2C(=O)[C@@H]2CCCN2C(=O)[C@H](CC(C)C)NC(=O)[C@H](CO)NC(=O)[C@H](CCCNC(=N)N)NC(=O)[C@H](CO)NC1=O) [Example 140: ((N-Me)G)-IC+SRSLP-(Oic)-I-(Pen)+IP-(PEG5(22 atoms))-NH2]
50.3 | 40 | AICSRSLP[Oic]ICIPD-OH (disulfide 3-11; N-terminus assumed; SMILES CC[C@H](C)[C@H](NC(=O)[C@H](C)N)C(=O)N[C@H]1CSSC[C@@H](C(=O)N[C@H](C(=O)N2CCC[C@H]2C(=O)N[C@@H](CC(=O)O)C(=O)O)[C@@H](C)CC)NC(=O)[C@H]([C@@H](C)CC)NC(=O)[C@@H]2C[C@@H]3CCCC[C@@H]3N2C(=O)[C@@H]2CCCN2C(=O)[C@H](CC(C)C)NC(=O)[C@H](CO)NC(=O)[C@H](CCCNC(=N)N)NC(=O)[C@H](CO)NC1=O) [Example 153: AIC+SRSLP-(Oic)-IC+IPD-OH]
53 | 120 | [Sar]ICSRSLP[Oic]I[Pen]IP[PEG7]-NH2 (disulfide 3-11; N-terminus assumed; SMILES CC[C@H](C)[C@H](NC(=O)CNC)C(=O)N[C@H]1CSSC(C)(C)[C@@H](C(=O)N[C@H](C(=O)N2CCC[C@H]2C(=O)NCCOCCOCCOCCOCCOCCOCCOCCC(N)=O)[C@@H](C)CC)NC(=O)[C@H]([C@@H](C)CC)NC(=O)[C@@H]2C[C@@H]3CCCC[C@@H]3N2C(=O)[C@@H]2CCCN2C(=O)[C@H](CC(C)C)NC(=O)[C@H](CO)NC(=O)[C@H](CCCNC(=N)N)NC(=O)[C@H](CO)NC1=O) [Example 150: ((N-Me)G)-IC+SRSLP-(Oic)-I-(Pen)+IP-(PEG7(25 atoms))-NH2]
68 | 110 | [Sar]ICSRSLP[Oic]I[Pen]IPD[PEG6]-NH2 (disulfide 3-11; N-terminus assumed; SMILES CC[C@H](C)[C@H](NC(=O)CNC)C(=O)N[C@H]1CSSC(C)(C)[C@@H](C(=O)N[C@H](C(=O)N2CCC[C@H]2C(=O)N[C@@H](CC(=O)O)C(=O)NCCOCCOCCOCCOCCOCCOCCC(N)=O)[C@@H](C)CC)NC(=O)[C@H]([C@@H](C)CC)NC(=O)[C@@H]2C[C@@H]3CCCC[C@@H]3N2C(=O)[C@@H]2CCCN2C(=O)[C@H](CC(C)C)NC(=O)[C@H](CO)NC(=O)[C@H](CCCNC(=N)N)NC(=O)[C@H](CO)NC1=O) [Example 146: ((N-Me)G)-IC+SRSLP-(Oic)-I-(Pen)+IPD-(PEG5(22 atoms))-NH2]
